Results: patent publication US20260250363A1
Where two headings read alike, the source gives them in different places.

Experiments:
[1] = molecular target: SARS-CoV-2 Spike Trimer, His Tag (BA.4/Omicron) (MALS verified) (AcroBiosystems, SPN-C5229) (SARS-CoV-2) (UniProt P0DTC2); assay: competition ELISA: blocks biotin-ACE2 binding to coated spike
[2] = molecular target: Recombinant SARS-CoV-2 BA.2 Spike (GCN4-IZ) His Protein, CF (R&D, 11109-CV) (SARS-CoV-2) (UniProt P0DTC2); assay: as above
[3] = molecular target: SARS-CoV-2 B.1.1.529 Spike Protein (Omicron) (SARS-CoV-2) (UniProt P0DTC2); assay: as above
[4] = molecular target: SARS-CoV-2 Spike Trimer, His Tag (BA.5/Omicron) (MALS verified) (AcroBiosystems, SPN-C522e) (SARS-CoV-2) (UniProt P0DTC2); assay: as above
[5] = molecular target: SARS-CoV-2 B.1.617.2 Spike Protein (R&D, Cat. #10878-CV) (SARS-CoV-2) (UniProt P0DTC2); assay: direct ELISA on coated spike
[6] = molecular target: SARS-CoV-2 B.1.617.2 Spike Protein (R&D, Cat. #10878-CV) (SARS-CoV-2) (UniProt P0DTC2); assay: competition ELISA: blocks biotin-ACE2 binding to coated spike
[7] = molecular target: SARS-CoV-2 B.1.617.2 Spike Protein (R&D, Cat. #10878-CV) (SARS-CoV-2) (UniProt P0DTC2); assay: as above; remark: listed apart in the source
[8] = molecular target: SARS-CoV-2 B.1.617.2 Spike Protein (R&D, Cat. #10878-CV) (SARS-CoV-2) (UniProt P0DTC2); assay: BLI (ForteBio), mAb on AHC sensor, spike in solution
[9] = molecular target: SARS-CoV-2 B.1.1.529 Spike Protein (Omicron) (SARS-CoV-2) (UniProt P0DTC2); assay: as above

Substance: Bebtelovimab (antibody)
- IC50 [1]: 4.07 nM
- IC50 [2]: 3.08 nM
- IC50 [3]: 6.73 nM
- IC50 [4]: 3.46 nM

Substance: Casirivimab (antibody)
- EC50 [5]: 0.0399 nM
- IC50 [6]: 0.956 nM
- IC50 [7]: 1.1 nM
- Kd [8]: 0.484 nM
- Kd [9]: 7.82 nM

Substance: Imdevimab (antibody)
- EC50 [5]: 0.0671 nM
- Kd [8]: 1.53 nM
- Kd [9]: 456 nM
